Measurements published in US20060099689A1.

Experiments:
Assay in all cases: cell-based or functional assay
[1] = target: H-GST-DEVD/X-mLIF with X = D (murine) (UniProt P09056)
[2] = target: H-GST-DEVD/X-mLIF with X = proline (P) (murine) (UniProt P09056)
[3] = target: H-GST-DEVD/X-mLIF with X = E (murine) (UniProt P09056)

inhibition of processing [1]: 25%
inhibition of processing [2]: 75%
inhibition of processing [3]: 25%
Substance: murine Caspase-3 (from UniProt P70677 29-175; P70677 176-277) (enzyme)
